According to the supplement of paper PMC10598134:
± gives the standard deviation.

Assay: collision cross section of modified peptide (TIMS, N2, iRT-aligned); higher = larger / more extended gas-phase ion
Method in brief: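 Values are averages of 1–3 technical replicates of the most abundant feature for each charge state. Collision cross section was obtained from the Mason-Schamp equation after 1/K0 calibration with three reference ions and run-wise alignment to the median iRT peptide deviation. Synthetic peptide pools (iRT standard spiked 1:40) were separated on a 120-min nanoflow C18 gradient at 60 °C, analysed on a timsTOF Pro/HT (dda-PASEF, nitrogen, ~2.4 mbar) and identified with MaxQuant.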

[1] = charge state: 2, modification: Dimethyl (K)
[2] = charge state: 3, modification: Dimethyl (K)
[3] = charge state: 2, modification: Formyl
[4] = charge state: 2, modification: Glutarylation
[5] = charge state: 3, modification: Glutarylation
[6] = charge state: 2, modification: GlyGly (K)
[7] = charge state: 3, modification: GlyGly (K)
[8] = charge state: 2, modification: Malonyl
[9] = charge state: 2, modification: Methyl (K)
[10] = charge state: 3, modification: Methyl (K)
[11] = charge state: 2, modification: Propionyl
[12] = charge state: 2, modification: Succinyl
[13] = charge state: 3, modification: Succinyl
[14] = charge state: 2, modification: Trimethyl (K)
[15] = charge state: 3, modification: Trimethyl (K)
[16] = charge state: 2, modification: hydroxyisobutyryl
[17] = charge state: 2, modification: Acetyl (K)
[18] = charge state: 2, modification: Butyryl
[19] = charge state: 2, modification: Crotonyl
[20] = charge state: 3, modification: HexNAc (ST)
[21] = charge state: 3, modification: Acetyl (K)
[22] = charge state: 2, modification: Biotin
[23] = charge state: 2, modification: HexNAc (ST)

## IQQELQTAKK [_IQQELQTAK(Dimethyl (K))K_]
[1]
  collision cross section: 374.44 ± 1.1 Å²
[2]
  collision cross section: 426.86 ± 2.1 Å²

## IQQELQTAKK [_IQQELQTAK(Formyl)K_]
[3]
  collision cross section: 369.08 ± 0.89 Å²

## IQQELQTAKK [_IQQELQTAK(Gluratylation)K_]
[4]
  collision cross section: 388.2 ± 0.52 Å²
[5]
  collision cross section: 444.75 Å²

## IQQELQTAKK [_IQQELQTAK(GlyGly (K))K_]
[6]
  collision cross section: 381.49 ± 0.89 Å²
[7]
  collision cross section: 434.95 ± 2 Å²

## IQQELQTAKK [_IQQELQTAK(Malonyl)K_]
[8]
  collision cross section: 373.35 ± 6 Å²

## IQQELQTAKK [_IQQELQTAK(Methyl (K))K_]
[9]
  collision cross section: 376.86 ± 3.5 Å²
[10]
  collision cross section: 430.18 ± 6.1 Å²

## IQQELQTAKK [_IQQELQTAK(Propionyl)K_]
[11]
  collision cross section: 379.28 ± 0.65 Å²

## IQQELQTAKK [_IQQELQTAK(Succinyl)K_]
[12]
  collision cross section: 376.48 ± 0.24 Å²
[13]
  collision cross section: 438.22 Å²

## IQQELQTAKK [_IQQELQTAK(Trimethyl (K))K_]
[14]
  collision cross section: 374.97 ± 0.61 Å²
[15]
  collision cross section: 436.54 ± 2.4 Å²

## IQQELQTAKK [_IQQELQTAK(hydroxyisobutyryl)K_]
[16]
  collision cross section: 386.63 ± 0.81 Å²

## IQTKAGEATVK [_IQTK(Acetyl (K))AGEATVK_]
[17]
  collision cross section: 364.34 ± 0.62 Å²

## IQTKAGEATVK [_IQTK(Butyryl)AGEATVK_]
[18]
  collision cross section: 371.66 ± 1.8 Å²

## IQTKAGEATVK [_IQTK(Crotonyl)AGEATVK_]
[19]
  collision cross section: 371.41 ± 0.56 Å²

## IQTKAGEATVK [_IQTK(Dimethyl (K))AGEATVK_]
[1]
  collision cross section: 367.67 ± 0.82 Å²

## IQTKAGEATVK [_IQTK(Formyl)AGEATVK_]
[3]
  collision cross section: 359.75 ± 0.38 Å²

## IQTKAGEATVK [_IQTK(Gluratylation)AGEATVK_]
[4]
  collision cross section: 370.55 ± 0.62 Å²

## IQTKAGEATVK [_IQTK(GlyGly (K))AGEATVK_]
[6]
  collision cross section: 373.63 ± 0.56 Å²
[7]
  collision cross section: 455.83 Å²

## IQTKAGEATVK [_IQTK(Malonyl)AGEATVK_]
[8]
  collision cross section: 364.75 ± 0.62 Å²

## IQTKAGEATVK [_IQTK(Methyl (K))AGEATVK_]
[9]
  collision cross section: 367.02 ± 0.38 Å²

## IQTKAGEATVK [_IQTK(Propionyl)AGEATVK_]
[11]
  collision cross section: 369.17 ± 0.33 Å²

## IQTKAGEATVK [_IQTK(Succinyl)AGEATVK_]
[12]
  collision cross section: 366.8 ± 0.24 Å²

## IQTKAGEATVK [_IQTK(Trimethyl (K))AGEATVK_]
[14]
  collision cross section: 376.56 ± 1.1 Å²
[15]
  collision cross section: 436.23 Å²

## IQTKAGEATVK [_IQTK(hydroxyisobutyryl)AGEATVK_]
[16]
  collision cross section: 374.42 ± 0.28 Å²

## IQTVPASHLQQGTASGSSK [_IQTVPASHLQQGTAS(HexNAc (ST))GSSK_]
[20]
  collision cross section: 510.18 ± 0.18 Å²

## ISALQGKLSK [_ISALQGK(Acetyl (K))LSK_]
[17]
  collision cross section: 353.22 ± 0.93 Å²
[21]
  collision cross section: 432.36 Å²

## ISALQGKLSK [_ISALQGK(Biotin)LSK_]
[22]
  collision cross section: 376.95 ± 2.2 Å²

## ISALQGKLSK [_ISALQGK(Butyryl)LSK_]
[18]
  collision cross section: 358.56 ± 1.2 Å²

## ISALQGKLSK [_ISALQGK(Crotonyl)LSK_]
[19]
  collision cross section: 358.67 ± 0.88 Å²

## ISALQGKLSK [_ISALQGK(Dimethyl (K))LSK_]
[1]
  collision cross section: 355.29 ± 0.29 Å²
[2]
  collision cross section: 425.26 ± 1.1 Å²

## ISALQGKLSK [_ISALQGK(Formyl)LSK_]
[3]
  collision cross section: 348.45 ± 1 Å²

## ISALQGKLSK [_ISALQGK(Gluratylation)LSK_]
[4]
  collision cross section: 358.52 ± 0.083 Å²

## ISALQGKLSK [_ISALQGK(GlyGly (K))LSK_]
[6]
  collision cross section: 369.61 ± 1 Å²
[7]
  collision cross section: 430.51 ± 2 Å²

## ISALQGKLSK [_ISALQGK(Malonyl)LSK_]
[8]
  collision cross section: 349.78 ± 0.6 Å²

## ISALQGKLSK [_ISALQGK(Methyl (K))LSK_]
[9]
  collision cross section: 354.46 ± 1.1 Å²
[10]
  collision cross section: 434.86 ± 2.4 Å²

## ISALQGKLSK [_ISALQGK(Propionyl)LSK_]
[11]
  collision cross section: 357.21 ± 0.33 Å²

## ISALQGKLSK [_ISALQGK(Succinyl)LSK_]
[12]
  collision cross section: 354.02 ± 1.3 Å²

## ISALQGKLSK [_ISALQGK(Trimethyl (K))LSK_]
[14]
  collision cross section: 359.1 ± 0.6 Å²
[15]
  collision cross section: 419.39 ± 1.8 Å²

## ISALQGKLSK [_ISALQGK(hydroxyisobutyryl)LSK_]
[16]
  collision cross section: 359.85 ± 0.79 Å²

## ISEILLDHGAPIQAK [_IS(HexNAc (ST))EILLDHGAPIQAK_]
[23]
  collision cross section: 457.74 ± 0.56 Å²
[20]
  collision cross section: 559.32 ± 1.1 Å²

## ISPVEESEDVSNK [_ISPVEES(HexNAc (ST))EDVSNK_]
[23]
  collision cross section: 415.06 ± 0.62 Å²

## ISSNFSSIIAEKLR [_ISSNFSSIIAEK(Acetyl (K))LR_]
[17]
  collision cross section: 428.83 ± 3 Å²
[21]
  collision cross section: 506.75 Å²

## ISSNFSSIIAEKLR [_ISSNFSSIIAEK(Butyryl)LR_]
[18]
  collision cross section: 436.86 ± 0.55 Å²

## ISSNFSSIIAEKLR [_ISSNFSSIIAEK(Crotonyl)LR_]
[19]
  collision cross section: 435.72 Å²

## ISSNFSSIIAEKLR [_ISSNFSSIIAEK(Dimethyl (K))LR_]
[1]
  collision cross section: 442.58 ± 1.2 Å²
[2]
  collision cross section: 495.15 ± 0.74 Å²

## ISSNFSSIIAEKLR [_ISSNFSSIIAEK(Gluratylation)LR_]
[4]
  collision cross section: 430.8 ± 0.96 Å²

## ISSNFSSIIAEKLR [_ISSNFSSIIAEK(GlyGly (K))LR_]
[6]
  collision cross section: 443.53 ± 6.7 Å²
[7]
  collision cross section: 502.71 ± 1.1 Å²

## ISSNFSSIIAEKLR [_ISSNFSSIIAEK(Methyl (K))LR_]
[9]
  collision cross section: 438.59 ± 1.7 Å²
[10]
  collision cross section: 507.3 ± 3.6 Å²

## ISSNFSSIIAEKLR [_ISSNFSSIIAEK(Succinyl)LR_]
[12]
  collision cross section: 432.83 ± 0.84 Å²
[13]
  collision cross section: 512.74 Å²

## ISSNFSSIIAEKLR [_ISSNFSSIIAEK(Trimethyl (K))LR_]
[15]
  collision cross section: 499.26 ± 8.7 Å²

## ISSNFSSIIAEKLR [_ISSNFSSIIAEK(hydroxyisobutyryl)LR_]
[16]
  collision cross section: 431.4 ± 1.4 Å²

## ITASLCDLKSR [_ITASLCDLK(Acetyl (K))SR_]
[17]
  collision cross section: 383.24 ± 1.3 Å²

## ITASLCDLKSR [_ITASLCDLK(Biotin)SR_]
[22]
  collision cross section: 401.02 Å²

## ITASLCDLKSR [_ITASLCDLK(Butyryl)SR_]
[18]
  collision cross section: 390.25 Å²

## ITASLCDLKSR [_ITASLCDLK(Formyl)SR_]
[3]
  collision cross section: 378.38 Å²

## ITASLCDLKSR [_ITASLCDLK(Gluratylation)SR_]
[4]
  collision cross section: 391.61 ± 1.4 Å²

## ITASLCDLKSR [_ITASLCDLK(GlyGly (K))SR_]
[6]
  collision cross section: 398.64 ± 0.87 Å²
[7]
  collision cross section: 457.36 ± 1.1 Å²

## ITASLCDLKSR [_ITASLCDLK(Malonyl)SR_]
[8]
  collision cross section: 382.56 Å²

## ITASLCDLKSR [_ITASLCDLK(Methyl (K))SR_]
[9]
  collision cross section: 398.61 Å²
[10]
  collision cross section: 456.95 ± 2.7 Å²

## ITASLCDLKSR [_ITASLCDLK(Succinyl)SR_]
[12]
  collision cross section: 384.23 ± 0.76 Å²

## ITASLCDLKSR [_ITASLCDLK(hydroxyisobutyryl)SR_]
[16]
  collision cross section: 395.08 ± 0.81 Å²

## ITESVAETAQTIK [_ITESVAET(HexNAc (ST))AQTIK_]
[23]
  collision cross section: 422.03 ± 0.75 Å²

## ITESVAETAQTIKK [_ITESVAET(HexNAc (ST))AQTIKK_]
[23]
  collision cross section: 456.71 ± 0.56 Å²
[20]
  collision cross section: 499.78 ± 0.18 Å²

## ITESVAETAQTIKK [_ITESVAETAQTIK(Acetyl (K))K_]
[17]
  collision cross section: 418.11 ± 1.3 Å²
[21]
  collision cross section: 510.01 ± 1.7 Å²

## ITESVAETAQTIKK [_ITESVAETAQTIK(Biotin)K_]
[22]
  collision cross section: 443.04 ± 1.4 Å²

## ITESVAETAQTIKK [_ITESVAETAQTIK(Butyryl)K_]
[18]
  collision cross section: 425.5 ± 0.24 Å²
Charge state: 3, modification: Butyryl
  collision cross section: 518.39 ± 2.7 Å²

## ITESVAETAQTIKK [_ITESVAETAQTIK(Crotonyl)K_]
[19]
  collision cross section: 424.18 ± 0.81 Å²
Charge state: 3, modification: Crotonyl
  collision cross section: 514.18 ± 1.1 Å²

## ITESVAETAQTIKK [_ITESVAETAQTIK(Dimethyl (K))K_]
[1]
  collision cross section: 449.13 ± 1.2 Å²
[2]
  collision cross section: 499.12 ± 1.6 Å²

## ITESVAETAQTIKK [_ITESVAETAQTIK(Formyl)K_]
[3]
  collision cross section: 415.52 ± 0.56 Å²
Charge state: 3, modification: Formyl
  collision cross section: 507.5 ± 1.5 Å²

## ITESVAETAQTIKK [_ITESVAETAQTIK(Gluratylation)K_]
[4]
  collision cross section: 429.83 ± 0.97 Å²
[5]
  collision cross section: 514.64 ± 1.7 Å²

## ITESVAETAQTIKK [_ITESVAETAQTIK(GlyGly (K))K_]
[6]
  collision cross section: 453.63 ± 0.95 Å²
[7]
  collision cross section: 514.8 ± 1.1 Å²

## ITESVAETAQTIKK [_ITESVAETAQTIK(Malonyl)K_]
[8]
  collision cross section: 420.49 ± 0.57 Å²
Charge state: 3, modification: Malonyl
  collision cross section: 509.94 ± 1.1 Å²

## ITESVAETAQTIKK [_ITESVAETAQTIK(Methyl (K))K_]
[9]
  collision cross section: 444.7 ± 2.5 Å²
[10]
  collision cross section: 507.98 ± 2.8 Å²

## ITESVAETAQTIKK [_ITESVAETAQTIK(Propionyl)K_]
[11]
  collision cross section: 421.06 ± 1.1 Å²
Charge state: 3, modification: Propionyl
  collision cross section: 515.07 Å²
